Data on three molecules can be found in article PMC5942852 (PLoS Computational Biology, 2018).

In assay [1] the target is T1, Bee Hyaluronidase (Apis mellifera (honeybee)).
T1 construct: also called the main allergen in bee venom
As to the kind of experiment: SPR; ProteOn XPR36 (Bio-Rad), GLC chip; IgG captured on amine-coupled anti-human capture antibody (Human Antibody Capture Kit), antigen as analyte; 1x HBS-EP+ pH 7.4 with BSA 1 mg/ml; equilibrium or kinetic Langmuir model. As to conditions: both partners purified.

Assay [2] has as its target T1, Bee Hyaluronidase. In words: SPR; Biacore 4000, CM5 chip; IgG captured on amine-coupled anti-human capture antibody (Human Antibody Capture Kit), antigen as analyte; 1x HBS-EP+ pH 7.4 with BSA 1 mg/ml; equilibrium or kinetic Langmuir model; apparent KD. As to conditions: both partners purified. In general terms: Surface plasmon resonance follows binding to a sensor surface in real time, without labels.

T1 sequence (heavy, as listed by the source): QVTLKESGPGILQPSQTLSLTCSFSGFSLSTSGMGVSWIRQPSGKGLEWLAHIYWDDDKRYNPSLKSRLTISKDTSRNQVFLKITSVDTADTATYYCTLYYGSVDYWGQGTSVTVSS

B1: WT 2J88 antibody (antibody, V domains shown)
VH: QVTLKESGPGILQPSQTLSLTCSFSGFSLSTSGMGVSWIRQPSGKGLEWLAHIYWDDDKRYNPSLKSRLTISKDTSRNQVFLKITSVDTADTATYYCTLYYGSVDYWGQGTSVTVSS
VL: DIQMTQSPASLSASVGETVTITCRASENIYSYLTWYQQKQGKSPQLLVYNAKTLAEGVPSRFSGSGSGTQFSLKISSLQPEDFGNYYCQHHYGTRTFGGGTRLEIK
notes: heavy-chain variable domain of the antibody in PDB 2J88; human IgG1 heavy constant region, from the vector pFUSEss-CHIg-hG1; light-chain variable domain of the antibody in PDB 2J88; human kappa constant region, from the vector pFUSEss-CLIg-hk; the abstract says one lambda and one kappa antibody were tested; Expressed as IgG (human IgG1 constant regions from pFUSE vectors) with the variable …
With B1, the Kd with Bee Hyaluronidase [1] was determined as 9.2 nM.

B2: L14_7 (antibody, V domains shown)
VH: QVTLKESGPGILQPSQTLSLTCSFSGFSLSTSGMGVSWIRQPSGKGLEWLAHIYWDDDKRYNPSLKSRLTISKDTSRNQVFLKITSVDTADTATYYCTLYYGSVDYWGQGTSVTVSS
VL: DIQMTQSPASLSASVGETVTITCRSSRDIKDYITWYQQKQGKSPQLLVYNAKTLAEGVPSRFSGSGSGTEFSLKISSLQPEDFGNYYCQHHYGTRTFGGGTRLEIK
notes: as the heavy-chain variable domain of m1 (PDB 2J88); human IgG1 heavy constant region, from the vector pFUSEss-CHIg-hG1; as the light-chain variable domain of m1 (PDB 2J88) with a designed L1 (cluster L1-11-2, six amino acid differences) and one difference in the L4 (DE) loop; human kappa constant region, from the vector pFUSEss-CLIg-hk; kappa inferred as for m1; IgG; Computational design (RAbD) …
In turn, B2 came in with a Kd with Bee Hyaluronidase [1] of 0.77 nM.

B3: WT 2J88 antibody Y38K (antibody, V domains shown)
VH: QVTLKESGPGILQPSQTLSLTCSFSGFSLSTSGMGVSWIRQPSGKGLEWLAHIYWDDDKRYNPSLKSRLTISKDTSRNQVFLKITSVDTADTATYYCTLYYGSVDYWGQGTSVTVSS
VL: DIQMTQSPASLSASVGETVTITCRASENIKSYLTWYQQKQGKSPQLLVYNAKTLAEGVPSRFSGSGSGTQFSLKISSLQPEDFGNYYCQHHYGTRTFGGGTRLEIK
notes: as the heavy-chain variable domain of m1 (PDB 2J88); human IgG1 heavy constant region, from the vector pFUSEss-CHIg-hG1; as the light-chain variable domain of m1 (PDB 2J88) with Y38K in L1; human kappa constant region, from the vector pFUSEss-CLIg-hk; kappa inferred as for m1; IgG; Position 38 is most likely AHo numbering; source: 293F cells, transfected (pFUSE vectors), purified (rProtein A …)
Take B3: the Kd with Bee Hyaluronidase [2] came out at 4.3 nM.
